The test system of the series is Escherichia coli TOP10. Nature of the series: shrunken log2 fold change of peptide-encoding DNA abundance (4.5 h post-induction vs induction); higher = less antimicrobial activity (less host growth inhibition). To be noted: time post-induction: 4.5 h; library: site-saturation at positions 5, 18, 19, 20.

Consider 76 sequences from the supplement of paper PMC9112550, “Optimization of the antimicrobial peptide Bac7 by deep mutational scanning” (BMC Biology, 2022).
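Note: peptides expressed intracellularly from a pBAD plasmid library in pooled LB shake-flask culture, induced with 0.3% L-arabinose, DNA abundance read by NGS, three biological replicates, DESeq2 with apeglm shrinkage.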

With RRIRIRPPRLPRPRPRPWENPRP, the “shrunken log2 fold change” value was -0.00674. Regarding RRIRWRPPRLPRPRPRPIHIPRP, the “shrunken log2 fold change” value was -0.694. For the sequence RRIRCRPPRLPRPRPRPVGKPRP, the “shrunken log2 fold change” value was determined as 0.0374.

For the sequence RRIRHRPPRLPRPRPRPGQDPRP, the “shrunken log2 fold change” value stood at 0.0217. Next, RRIRTRPPRLPRPRPRPIWWPRP: 0.261; RRIRFRPPRLPRPRPRPWPQPRP: 0.127. Next, RRIRIRPPRLPRPRPRPKAWPRP: 0.0719; RRIRTRPPRLPRPRPRPNFVPRP: 0.0615; RRIRYRPPRLPRPRPRPVRHPRP: -0.245. Next, RRIRNRPPRLPRPRPRPEMPPRP: -0.0738; RRIRSRPPRLPRPRPRPQKWPRP: -0.0746; RRIRCRPPRLPRPRPRPEQCPRP: 0.237. Turning to RRIRKRPPRLPRPRPRPCDYPRP, the “shrunken log2 fold change” value is -0.0336. As to RRIRWRPPRLPRPRPRPLCWPRP, the “shrunken log2 fold change” value worked out at 0.513.

With RRIRTRPPRLPRPRPRPKHHPRP, the “shrunken log2 fold change” value was -0.263.

Turning to RRIRKRPPRLPRPRPRPFVGPRP, the “shrunken log2 fold change” value was -0.0257. The same measure for RRIRWRPPRLPRPRPRPIPMPRP: 0.112; for RRIRWRPPRLPRPRPRPCKWPRP: -0.275.

RRIRERPPRLPRPRPRPSEWPRP: the “shrunken log2 fold change” value was -0.0737. Regarding RRIRRRPPRLPRPRPRPKHEPRP, the “shrunken log2 fold change” value stood at 0.0619. Next, RRIRDRPPRLPRPRPRPSHDPRP: -0.339; RRIRERPPRLPRPRPRPFAIPRP: -0.122; RRIRARPPRLPRPRPRPLVPPRP: 0.125. The same measure for RRIRSRPPRLPRPRPRPLSRPRP: 0.0301; for RRIRVRPPRLPRPRPRPMGRPRP: -0.0203. The same measure for RRIRQRPPRLPRPRPRPVQMPRP: -0.163.

Consider RRIRERPPRLPRPRPRPFDYPRP, for which the “shrunken log2 fold change” value is 0.155. As for RRIRIRPPRLPRPRPRPCDIPRP, the “shrunken log2 fold change” value is -0.416. Next, RRIRPRPPRLPRPRPRPRQGPRP: 0.236.

RRIRVRPPRLPRPRPRPKMNPRP: the “shrunken log2 fold change” value is -0.262.

Consider RRIRSRPPRLPRPRPRPESCPRP, for which the “shrunken log2 fold change” value was 0.181. Regarding RRIRFRPPRLPRPRPRPDLEPRP, the “shrunken log2 fold change” value is -0.0811. The same measure for RRIRTRPPRLPRPRPRPGLLPRP: 0.0639. Consider RRIRSRPPRLPRPRPRPNPIPRP, for which the “shrunken log2 fold change” value came to 0.0127. Next, RRIRKRPPRLPRPRPRPKLRPRP: -0.0198; RRIRKRPPRLPRPRPRPRRQPRP: 0.333; RRIRSRPPRLPRPRPRPSSHPRP: -0.0982. The same measure for RRIRDRPPRLPRPRPRPNWDPRP: 0.0503. The same measure for RRIRVRPPRLPRPRPRPVWPPRP: 0.257; for RRIRMRPPRLPRPRPRPYHSPRP: -0.0421. Regarding RRIRCRPPRLPRPRPRPKMGPRP, the “shrunken log2 fold change” value was determined as 0.0549. In the case of RRIRGRPPRLPRPRPRPFLKPRP, the “shrunken log2 fold change” value turned out to be 0.186. The same measure for RRIRYRPPRLPRPRPRPDIKPRP: -0.602; for RRIRARPPRLPRPRPRPTYTPRP: -0.0355. As to RRIRYRPPRLPRPRPRPFCNPRP, the “shrunken log2 fold change” value is -0.0455. The same measure for RRIRFRPPRLPRPRPRPNCIPRP: -0.342; for RRIRGRPPRLPRPRPRPCYEPRP: 0.219; for RRIRYRPPRLPRPRPRPMLDPRP: -0.467. Next, RRIRCRPPRLPRPRPRPIWPPRP: 0.415.

As to RRIRMRPPRLPRPRPRPSRPPRP, the “shrunken log2 fold change” value came to 0.764.

Turning to RRIRPRPPRLPRPRPRPVNLPRP, the “shrunken log2 fold change” value was -0.136. The same measure for RRIRCRPPRLPRPRPRPYWRPRP: -0.0756. The same measure for RRIRFRPPRLPRPRPRPPKGPRP: -0.0971; for RRIRFRPPRLPRPRPRPESPPRP: 0.00789; for RRIRERPPRLPRPRPRPTWRPRP: 0.268. Next, RRIRIRPPRLPRPRPRPTSDPRP: -0.245; RRIRNRPPRLPRPRPRPDNNPRP: -0.187; RRIRLRPPRLPRPRPRPRMSPRP: -1. As to RRIRPRPPRLPRPRPRPFINPRP, the “shrunken log2 fold change” value was -0.382. The same measure for RRIRDRPPRLPRPRPRPYAYPRP: 0.0345. Next, RRIRHRPPRLPRPRPRPMDTPRP: 0.03; RRIRLRPPRLPRPRPRPLWHPRP: 0.0621. Next, RRIRERPPRLPRPRPRPNMHPRP: -0.619. On to RRIRRRPPRLPRPRPRPFCEPRP, for which the “shrunken log2 fold change” value is 0.0918.

As for RRIRQRPPRLPRPRPRPQMPPRP, the “shrunken log2 fold change” value is -1.26.

Turning to RRIRDRPPRLPRPRPRPHAHPRP, the “shrunken log2 fold change” value is 0.0605. Next, RRIRHRPPRLPRPRPRPEDDPRP: 0.141; RRIRPRPPRLPRPRPRPVMRPRP: 0.95; RRIRTRPPRLPRPRPRPMQQPRP: 0.065. The same measure for RRIRHRPPRLPRPRPRPSSFPRP: 0.0395; for RRIRQRPPRLPRPRPRPFWDPRP: 0.213; for RRIRNRPPRLPRPRPRPPGLPRP: 0.46. The same measure for RRIRFRPPRLPRPRPRPCNIPRP: 0.0928; for RRIRCRPPRLPRPRPRPTFTPRP: -0.416. For RRIRHRPPRLPRPRPRPCKIPRP, the “shrunken log2 fold change” value was -0.036. RRIRHRPPRLPRPRPRPLTYPRP: the “shrunken log2 fold change” value was -0.402.
